From article PMC9482650, “Quantitative fragmentomics allow affinity mapping of interactomes” (Nature Communications, 2022)

Assays:
Assay in all cases: holdup assay
Set-up in all cases: key: below the threshold = too weak to quantify, mostly under pKd 3.1 to 4
SNX27, Q96L92 = target: SNX27, Q96L92
DLG3_3, Q92796 = target: T1, DLG3_3, Q92796
T1 sequence (Q92796 374-475, limits assumed, looked up): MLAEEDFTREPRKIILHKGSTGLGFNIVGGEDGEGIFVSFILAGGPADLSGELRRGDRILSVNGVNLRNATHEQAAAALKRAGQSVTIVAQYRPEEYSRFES

DLG4_1, P78352 = target: DLG4_1, P78352
NHERF3_4, Q5T2W1 = target: T2, NHERF3_4, Q5T2W1
T2 sequence (Q5T2W1 373-468, limits assumed, looked up): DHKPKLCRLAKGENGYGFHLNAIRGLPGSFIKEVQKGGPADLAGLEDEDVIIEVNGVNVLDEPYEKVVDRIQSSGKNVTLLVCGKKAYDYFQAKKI

SCRIB_1, Q14160 = target: SCRIB_1, Q14160
FRMPD2_2, Q68DX3 = target: FRMPD2_2, Q68DX3
FRMPD4, Q14CM0 = target: FRMPD4, Q14CM0
DLG4_2, P78352 = target: DLG4_2, P78352
MAST2, Q6P0Q8 = target: MAST2, Q6P0Q8
GORASP2, Q9H8Y8 = target: GORASP2, Q9H8Y8
LRRC7, Q96NW7 = target: T3, LRRC7, Q96NW7
T3 sequence (Q96NW7 1440-1537, limits assumed, looked up): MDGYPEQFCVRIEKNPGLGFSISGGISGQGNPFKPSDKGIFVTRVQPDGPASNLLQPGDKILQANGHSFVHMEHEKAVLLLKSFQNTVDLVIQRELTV

RHPN1, Q8TCX5 = target: T4, RHPN1, Q8TCX5
T4 sequence (Q8TCX5 508-602, limits assumed, looked up): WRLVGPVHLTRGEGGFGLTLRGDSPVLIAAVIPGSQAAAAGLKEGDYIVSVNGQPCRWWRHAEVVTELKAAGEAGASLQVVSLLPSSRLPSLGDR

GRIP2_6, Q9C0E4 = target: GRIP2_6, Q9C0E4
MAGI3_2, Q5TCQ9 = target: MAGI3_2, Q5TCQ9
LNX2_3, Q8N448 = target: T5, LNX2_3, Q8N448
T5 sequence (Q8N448 463-564, limits assumed, looked up): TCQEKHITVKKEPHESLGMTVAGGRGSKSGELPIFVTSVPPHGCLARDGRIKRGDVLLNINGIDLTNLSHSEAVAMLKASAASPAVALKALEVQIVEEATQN

GIPC2, Q8TF65 = target: GIPC2, Q8TF65
DFNB31_2, Q9P202 = target: T6, DFNB31_2, Q9P202
T6 sequence (Q9P202 274-371, limits assumed, looked up): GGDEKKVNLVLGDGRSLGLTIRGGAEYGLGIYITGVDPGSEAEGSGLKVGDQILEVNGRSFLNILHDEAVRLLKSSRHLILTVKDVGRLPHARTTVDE

ARHGAP21, Q5T5U3 = target: T7, ARHGAP21, Q5T5U3
T7 sequence (Q5T5U3 45-169, limits assumed, looked up): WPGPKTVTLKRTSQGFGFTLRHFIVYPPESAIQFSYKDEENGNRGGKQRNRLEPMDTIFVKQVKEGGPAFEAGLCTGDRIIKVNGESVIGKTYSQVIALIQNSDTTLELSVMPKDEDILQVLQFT

DLG5_1, Q8TDM6 = target: DLG5_1, Q8TDM6
DLG1_2, Q12959 = target: DLG1_2, Q12959
LNX1_2, Q8TBB1 = target: LNX1_2, Q8TBB1
NHERF3_1, Q5T2W1 = target: T8, NHERF3_1, Q5T2W1
T8 sequence (Q5T2W1 4-100, limits assumed, looked up): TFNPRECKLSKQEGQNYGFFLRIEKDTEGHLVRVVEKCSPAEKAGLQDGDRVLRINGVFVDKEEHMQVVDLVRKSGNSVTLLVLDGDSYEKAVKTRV

DLG4_3, P78352 = target: DLG4_3, P78352
SYNJ2BP, P57105 = target: T9, SYNJ2BP, P57105
T9 sequence (P57105 8-110, limits assumed, looked up): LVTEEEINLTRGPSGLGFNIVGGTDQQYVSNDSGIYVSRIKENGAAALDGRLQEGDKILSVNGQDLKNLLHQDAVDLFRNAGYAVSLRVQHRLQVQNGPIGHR

GRIP2_3, Q9C0E4 = target: GRIP2_3, Q9C0E4
APBA3_1, O96018 = target: T10, APBA3_1, O96018
T10 sequence (O96018 389-490, limits assumed, looked up): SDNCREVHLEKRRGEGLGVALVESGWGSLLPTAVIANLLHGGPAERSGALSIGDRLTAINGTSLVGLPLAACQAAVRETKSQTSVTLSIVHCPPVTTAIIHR

NHERF4_4, Q86UT5 = target: NHERF4_4, Q86UT5
[1] = plain residues with an end cap or a label only (N-terminal biotin on a linker: ahx)
[2] = plain residues with an end cap or a label only (N-terminal biotin on a linker: ttds)

Sequence of GRIP2_3, Q9C0E4 (Q9C0E4 238-339): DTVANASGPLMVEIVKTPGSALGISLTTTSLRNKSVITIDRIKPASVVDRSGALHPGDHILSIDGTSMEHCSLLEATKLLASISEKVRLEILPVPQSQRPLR
Sequence of MAST2, Q6P0Q8 (Q6P0Q8 1099-1202): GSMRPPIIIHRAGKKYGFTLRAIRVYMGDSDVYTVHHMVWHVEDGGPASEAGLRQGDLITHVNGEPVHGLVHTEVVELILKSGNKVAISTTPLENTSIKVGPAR
Sequence of FRMPD2_2, Q68DX3 (Q68DX3 944-1038): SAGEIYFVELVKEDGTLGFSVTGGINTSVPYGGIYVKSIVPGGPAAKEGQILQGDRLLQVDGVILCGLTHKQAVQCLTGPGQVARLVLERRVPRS
Sequence of DLG4_1, P78352 (P78352 62-152): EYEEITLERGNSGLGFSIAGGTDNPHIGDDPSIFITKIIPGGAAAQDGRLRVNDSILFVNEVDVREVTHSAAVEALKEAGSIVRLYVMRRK
Sequence of DLG4_2, P78352 (P78352 155-259): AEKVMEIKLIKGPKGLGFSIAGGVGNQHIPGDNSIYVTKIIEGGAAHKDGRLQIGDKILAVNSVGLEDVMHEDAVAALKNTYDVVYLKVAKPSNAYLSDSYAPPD
Sequence of LNX1_2, Q8TBB1 (Q8TBB1 371-470): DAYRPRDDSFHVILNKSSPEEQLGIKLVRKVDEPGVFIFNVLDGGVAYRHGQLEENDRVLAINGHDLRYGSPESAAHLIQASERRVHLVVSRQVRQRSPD
Sequence of DLG5_1, Q8TDM6 (Q8TDM6 617-713): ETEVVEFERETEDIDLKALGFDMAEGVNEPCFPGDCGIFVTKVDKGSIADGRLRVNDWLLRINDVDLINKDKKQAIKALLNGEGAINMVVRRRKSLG
Sequence of DLG1_2, Q12959 (Q12959 314-412): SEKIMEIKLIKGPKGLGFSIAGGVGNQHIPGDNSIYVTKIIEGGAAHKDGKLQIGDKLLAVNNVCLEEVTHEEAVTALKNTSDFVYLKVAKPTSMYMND
Sequence of FRMPD4, Q14CM0 (Q14CM0 67-160): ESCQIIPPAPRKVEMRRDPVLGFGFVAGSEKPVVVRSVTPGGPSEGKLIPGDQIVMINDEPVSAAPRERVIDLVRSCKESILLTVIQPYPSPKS
Sequence of GIPC2, Q8TF65 (Q8TF65 112-203): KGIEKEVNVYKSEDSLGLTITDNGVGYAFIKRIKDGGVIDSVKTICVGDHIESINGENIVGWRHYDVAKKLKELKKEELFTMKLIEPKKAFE
Sequence of GRIP2_6, Q9C0E4 (Q9C0E4 648-740): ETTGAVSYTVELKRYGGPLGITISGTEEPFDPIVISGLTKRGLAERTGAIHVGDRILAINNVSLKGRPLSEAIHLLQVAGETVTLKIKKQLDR
Sequence of MAGI3_2, Q5TCQ9 (Q5TCQ9 398-503): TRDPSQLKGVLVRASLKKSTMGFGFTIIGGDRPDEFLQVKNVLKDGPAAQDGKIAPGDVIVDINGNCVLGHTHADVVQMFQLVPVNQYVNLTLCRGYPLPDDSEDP
Sequence of DLG4_3, P78352 (P78352 306-403): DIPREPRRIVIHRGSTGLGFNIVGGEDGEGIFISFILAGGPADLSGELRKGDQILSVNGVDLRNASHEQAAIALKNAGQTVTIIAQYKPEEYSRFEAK
Sequence of NHERF4_4, Q86UT5 (Q86UT5 464-550): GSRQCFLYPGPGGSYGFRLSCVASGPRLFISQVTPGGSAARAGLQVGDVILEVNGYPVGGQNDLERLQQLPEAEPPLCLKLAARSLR
Sequence of SCRIB_1, Q14160 (Q14160 718-814): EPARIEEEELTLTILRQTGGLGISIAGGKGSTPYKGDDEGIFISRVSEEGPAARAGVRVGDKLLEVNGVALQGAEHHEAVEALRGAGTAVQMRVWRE

PKMKLNETSF [SHKBP1, Q8TBC3]
pKd (SNX27, Q96L92; [1]): 5.54
pKd (DLG3_3, Q92796; [1]): below the threshold
pKd (DLG4_1, P78352; [1]): below the threshold
pKd (NHERF3_4, Q5T2W1; [1]): below the threshold
pKd (SCRIB_1, Q14160; [1]): 4.31
pKd (FRMPD2_2, Q68DX3; [1]): below the threshold
pKd (FRMPD4, Q14CM0; [1]): below the threshold
pKd (DLG4_2, P78352; [1]): below the threshold
pKd (MAST2, Q6P0Q8; [1]): 4.94
pKd (GORASP2, Q9H8Y8; [1]): below the threshold
pKd (LRRC7, Q96NW7; [1]): below the threshold
pKd (RHPN1, Q8TCX5; [1]): 3.72
pKd (GRIP2_6, Q9C0E4; [1]): below the threshold
pKd (MAGI3_2, Q5TCQ9; [1]): below the threshold
pKd (LNX2_3, Q8N448; [1]): below the threshold
pKd (GIPC2, Q8TF65; [1]): below the threshold
pKd (DFNB31_2, Q9P202; [1]): below the threshold
pKd (ARHGAP21, Q5T5U3; [1]): 3.5
pKd (DLG5_1, Q8TDM6; [1]): below the threshold
pKd (DLG1_2, Q12959; [1]): below the threshold
pKd (LNX1_2, Q8TBB1; [1]): below the threshold
pKd (NHERF3_1, Q5T2W1; [1]): 4.55
pKd (DLG4_3, P78352; [1]): below the threshold
pKd (SYNJ2BP, P57105; [1]): below the threshold
pKd (GRIP2_3, Q9C0E4; [1]): below the threshold
pKd (APBA3_1, O96018; [1]): below the threshold
pKd (NHERF4_4, Q86UT5; [1]): below the threshold

SHSSKGETAV [FZD7, O75084]
pKd (SNX27, Q96L92; [2]): 4.8
pKd (DLG3_3, Q92796; [2]): 4.12
pKd (DLG4_1, P78352; [2]): 4.4
pKd (NHERF3_4, Q5T2W1; [2]): below the threshold
pKd (SCRIB_1, Q14160; [2]): 4.11
pKd (FRMPD2_2, Q68DX3; [2]): 3.81
pKd (FRMPD4, Q14CM0; [2]): 3.52
pKd (DLG4_2, P78352; [2]): 4.69
pKd (MAST2, Q6P0Q8; [2]): 5.09
pKd (GORASP2, Q9H8Y8; [2]): 3.66
pKd (LRRC7, Q96NW7; [2]): below the threshold
pKd (RHPN1, Q8TCX5; [2]): below the threshold
pKd (GRIP2_6, Q9C0E4; [2]): 3.58
pKd (MAGI3_2, Q5TCQ9; [2]): 4.93
pKd (LNX2_3, Q8N448; [2]): below the threshold
pKd (GIPC2, Q8TF65; [2]): 3.62
pKd (DFNB31_2, Q9P202; [2]): below the threshold
pKd (ARHGAP21, Q5T5U3; [2]): below the threshold
pKd (DLG5_1, Q8TDM6; [2]): below the threshold
pKd (DLG1_2, Q12959; [2]): 4.78
pKd (LNX1_2, Q8TBB1; [2]): below the threshold
pKd (NHERF3_1, Q5T2W1; [2]): 4.22
pKd (DLG4_3, P78352; [2]): 4.02
pKd (SYNJ2BP, P57105; [2]): 5.08
pKd (GRIP2_3, Q9C0E4; [2]): 3.55
pKd (APBA3_1, O96018; [2]): below the threshold
pKd (NHERF4_4, Q86UT5; [2]): below the threshold

PFRSRSPSEV [GPR6, P46095]
pKd (SNX27, Q96L92; [2]): below the threshold
pKd (DLG3_3, Q92796; [2]): below the threshold
pKd (DLG4_1, P78352; [2]): below the threshold
pKd (NHERF3_4, Q5T2W1; [2]): below the threshold
pKd (SCRIB_1, Q14160; [2]): below the threshold
pKd (FRMPD2_2, Q68DX3; [2]): below the threshold
pKd (FRMPD4, Q14CM0; [2]): below the threshold
pKd (DLG4_2, P78352; [2]): 3.75
pKd (MAST2, Q6P0Q8; [2]): below the threshold
pKd (GORASP2, Q9H8Y8; [2]): 3.81
pKd (LRRC7, Q96NW7; [2]): below the threshold
pKd (RHPN1, Q8TCX5; [2]): below the threshold
pKd (GRIP2_6, Q9C0E4; [2]): below the threshold
pKd (MAGI3_2, Q5TCQ9; [2]): 4.16
pKd (LNX2_3, Q8N448; [2]): below the threshold
pKd (GIPC2, Q8TF65; [2]): below the threshold
pKd (DFNB31_2, Q9P202; [2]): below the threshold
pKd (ARHGAP21, Q5T5U3; [2]): below the threshold
pKd (DLG5_1, Q8TDM6; [2]): below the threshold
pKd (DLG1_2, Q12959; [2]): 3.87
pKd (LNX1_2, Q8TBB1; [2]): below the threshold
pKd (NHERF3_1, Q5T2W1; [2]): below the threshold
pKd (DLG4_3, P78352; [2]): below the threshold
pKd (SYNJ2BP, P57105; [2]): 4.18
pKd (GRIP2_3, Q9C0E4; [2]): below the threshold
pKd (APBA3_1, O96018; [2]): below the threshold
pKd (NHERF4_4, Q86UT5; [2]): below the threshold

YNSFLSVTTV [PDZRN3, Q9UPQ7]
pKd (SNX27, Q96L92; [1]): 4.49
pKd (DLG3_3, Q92796; [1]): 3.67
pKd (DLG4_1, P78352; [1]): 3.84
pKd (NHERF3_4, Q5T2W1; [1]): 3.63
pKd (SCRIB_1, Q14160; [1]): 3.62
pKd (FRMPD2_2, Q68DX3; [1]): 3.73
pKd (FRMPD4, Q14CM0; [1]): below the threshold
pKd (DLG4_2, P78352; [1]): 4.15
pKd (MAST2, Q6P0Q8; [1]): 4.46
pKd (GORASP2, Q9H8Y8; [1]): 4.33
pKd (LRRC7, Q96NW7; [1]): below the threshold
pKd (RHPN1, Q8TCX5; [1]): 4.4
pKd (GRIP2_6, Q9C0E4; [1]): below the threshold
pKd (MAGI3_2, Q5TCQ9; [1]): 4.27
pKd (LNX2_3, Q8N448; [1]): below the threshold
pKd (GIPC2, Q8TF65; [1]): below the threshold
pKd (DFNB31_2, Q9P202; [1]): below the threshold
pKd (ARHGAP21, Q5T5U3; [1]): below the threshold
pKd (DLG5_1, Q8TDM6; [1]): below the threshold
pKd (DLG1_2, Q12959; [1]): 4.19
pKd (LNX1_2, Q8TBB1; [1]): 4.23
pKd (NHERF3_1, Q5T2W1; [1]): below the threshold
pKd (DLG4_3, P78352; [1]): below the threshold
pKd (SYNJ2BP, P57105; [1]): below the threshold
pKd (GRIP2_3, Q9C0E4; [1]): below the threshold
pKd (APBA3_1, O96018; [1]): below the threshold
pKd (NHERF4_4, Q86UT5; [1]): 3.49

KLVIKTETTV [RASSF6, Q6ZTQ3]
pKd (SNX27, Q96L92; [2]): 5.03
pKd (DLG3_3, Q92796; [2]): 4.43
pKd (DLG4_1, P78352; [2]): 5.04
pKd (NHERF3_4, Q5T2W1; [2]): below the threshold
pKd (SCRIB_1, Q14160; [2]): 3.9
pKd (FRMPD2_2, Q68DX3; [2]): below the threshold
pKd (FRMPD4, Q14CM0; [2]): below the threshold
pKd (DLG4_2, P78352; [2]): 5.48
pKd (MAST2, Q6P0Q8; [2]): 5.13
pKd (GORASP2, Q9H8Y8; [2]): 3.81
pKd (LRRC7, Q96NW7; [2]): below the threshold
pKd (RHPN1, Q8TCX5; [2]): 3.93
pKd (GRIP2_6, Q9C0E4; [2]): below the threshold
pKd (MAGI3_2, Q5TCQ9; [2]): 5.22
pKd (LNX2_3, Q8N448; [2]): below the threshold
pKd (GIPC2, Q8TF65; [2]): below the threshold
pKd (DFNB31_2, Q9P202; [2]): below the threshold
pKd (ARHGAP21, Q5T5U3; [2]): below the threshold
pKd (DLG5_1, Q8TDM6; [2]): below the threshold
pKd (DLG1_2, Q12959; [2]): 5.55
pKd (LNX1_2, Q8TBB1; [2]): 3.66
pKd (NHERF3_1, Q5T2W1; [2]): below the threshold
pKd (DLG4_3, P78352; [2]): 4.39
pKd (SYNJ2BP, P57105; [2]): 4.97
pKd (GRIP2_3, Q9C0E4; [2]): below the threshold
pKd (APBA3_1, O96018; [2]): below the threshold
pKd (NHERF4_4, Q86UT5; [2]): below the threshold
